# Laboratory results published in US8183340B2, “GLP-1 pegylated compounds” (Eli Lilly and Company, priority 2005, dated 2012).
# Where no end group is shown, it is not given here. PEG = not defined here
# Key:
# human GLP-1 receptor = target: T1, human GLP-1 receptor (Homo sapiens, UniProt P43220); assay: In vitro activity assay, CRE-Luciferase in HEK-293 cells stably expressing the human GLP-1 receptor; assay type: cell-based; settings: 5 hours incubation
# T1 construct: expressed in transfected cells
# Procedure: “In vitro potency” as used herein, is the measure of the ability of a peptide to activate the GLP-1 receptor in a cell-based assay. In vitro potency is expressed as the “EC50” which is the effective concentration of compound that results in 50% activity in a single dose-response experiment. For the purposes of the present invention, in vitro potency is determined using a […] assay that employs HEK-293 cells that stably express the human GLP-1 receptor. These HEK-293 cells have stably integrated a DNA vector having a cAMP response element (CRE) driving expression of the luciferase gene. The interaction of a GLP-1 compound or a PEGylated GLP-1 compound with the receptor initiates a signal that results in activation of the cAMP response element and subsequent expression of luciferase. The EC50 values for the PEGylated GLP-1 compounds listed in Example 3 were determined using the luciferase assay described above. Relative in vitro potency values may be established by running Val8-GLP-1(7-37)OH or native GLP-1 as a control and assigning the control a reference value of 100%.
# HEK-293 cells stably expressing the human GLP-1 receptor, using a CRE-Luciferase system, are seeded at 30,000 cells/well/80 μl low serum DMEM F12 medium into 96 well plates. […] Plates are placed in a Tri-lux luminometer and light output resulting from luciferase expression is calculated.
# [1] = Pharmacokinetic analysis after IV or SC administration to male SD rats (plasma, N-terminal specific radioimmunoassay); assay type: in vivo; settings: for AUC0-last / CL/F (total body clearance as a function of bioavailability) / Cmax (maximum observed plasma concentration) / Tmax (time of maximum observed plasma concentration) / t1/2 (elimination half-life): mean
# Procedure: A PEGylated GLP-1 compound of Formula I, wherein Xaa8 is Val; Xaa22 is Glu; Xaa33 is Ile; and Xaa46 is Cys-NH2 is administered by intravenous (IV) or subcutaneous (SC) routes at a dose of 0.1 mg/kg to male SD rats. The animals (3 rats per group) are bled at various times between 0 and 192 hours after dosing. Plasma is collected from each sample and analyzed by N-terminal specific radioimmunoassay. Pharmacokinetic parameters are calculated using noncompartmental methods (WinNonlin Pro). By IV administration, the PEGylated GLP-1 analog has an elimination half-life of approximately 1.2 days while by SC administration the PEGylated GLP-1 analog has an elimination half-life of approximately 1.1 days. […] Prolonged elimination half-life, slow clearance and subcutaneous bioavailability (approximately 30%) are observed for the compound. Representative data are shown below in Table 1
# [2] = Pharmacokinetic analysis after SC administration to male cynomolgus monkeys (serum, N-terminal specific radioimmunoassay); assay type: in vivo; settings: 0.01 mg/kg, mean
# Procedure: A PEGylated GLP-1 compound of Formula I, wherein Xaa8 is Val; Xaa22 is Glu; Xaa33 is Ile; and Xaa46 is Cys-NH2 is administered by subcutaneous (SC) route at a dose of 0.01 mg/kg to male cynomolgus monkeys. The animals are bled at various times between 0 and 168 hours after dosing. Serum is collected from each sample and analyzed by N-terminal specific radioimmunoassay. Pharmacokinetic parameters are calculated using noncompartmental methods (WinNonlin Pro). Representative data are shown below in Table 2.
# Insulin = assay: Pharmacodynamic analysis: stepped intravenous glucose infusion, insulin levels by immunoassay; assay type: in vivo, male cynomolgus monkeys; settings: for Insulin AUC, AUClast: stepped IV glucose infusion, mean
# Procedure: A PEGylated GLP-1 compound of Formula I, wherein Xaa8 is Val; Xaa22 is Glu; Xaa33 is Ile; and Xaa46 is Cys-NH2 is administered by subcutaneous (SC) route at a dose of 0.01 mg/kg to male cynomolgus monkeys. A stepped intravenous glucose infusion is conducted immediately after SC administration of vehicle control (phosphate buffered saline) and 1, 5, and 7 days after SC administration of 0.01 mg/kg PEGylated GLP-1 analog. Stepped intravenous glucose infusion procedures are conducted in sedated monkeys after a 16-hour fast. Blood samples are drawn at 10 minutes prior to start of glucose infusion and immediately prior to start of glucose infusion to define baseline. A stepped infusion of glucose (20% dextrose) is then initiated at a rate of 10 mg/kg/min for 20 minutes followed by an infusion of 25 mg/kg/min for an additional 20 minutes. Blood samples are taken at 10-minute intervals throughout the infusion period. Insulin levels are determined by immunoassay. […] Representative data are shown below in Table 3.
# T1 sequence (P43220 24-463): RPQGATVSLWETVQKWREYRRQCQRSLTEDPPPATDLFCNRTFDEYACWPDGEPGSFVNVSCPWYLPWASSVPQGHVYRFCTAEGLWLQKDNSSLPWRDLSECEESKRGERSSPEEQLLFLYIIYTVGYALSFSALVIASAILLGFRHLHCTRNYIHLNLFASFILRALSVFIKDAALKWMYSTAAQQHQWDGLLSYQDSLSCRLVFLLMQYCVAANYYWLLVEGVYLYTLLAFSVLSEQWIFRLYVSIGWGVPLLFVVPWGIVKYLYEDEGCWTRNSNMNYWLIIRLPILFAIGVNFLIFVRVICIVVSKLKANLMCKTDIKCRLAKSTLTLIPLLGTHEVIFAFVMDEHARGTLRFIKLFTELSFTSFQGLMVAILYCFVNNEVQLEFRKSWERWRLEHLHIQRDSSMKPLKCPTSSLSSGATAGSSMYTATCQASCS
substance,measurement,setting,value
"PEGylated GLP-1 compound of Formula I, wherein Xaa8 is Val; Xaa22 is Glu; Xaa33 is Ile; and Xaa46 is Cys-NH2: Formula I (SEQ ID NO: 1) peptide, one PEG molecule covalently attached to Cys45 and one to Cys46-NH2 (HVEGTFTSDVSSYLEEQAAKEFIAWLIKGGPSSGAPPPC(PEG)C(PEG)-NH2; reading uncertain)",EC50,human GLP-1 receptor,0.36 ± 0.04 nM
same,adverse clinical observations,[1]; IV or SC administration of 0.1 mg/kg,No adverse clinical observations
same,elimination half-life,"[1]; IV, 0.1 mg/kg",approximately 1.2 days
same,AUC0-last,"[1]; IV, 0.1 mg/kg",52292 ng·h/mL
same,CL/F (total body clearance as a function of bioavailability),"[1]; IV, 0.1 mg/kg",1.9 mL/h/kg
same,Cmax (maximum observed plasma concentration),"[1]; IV, 0.1 mg/kg",2020 ng/mL
same,Tmax (time of maximum observed plasma concentration),"[1]; IV, 0.1 mg/kg",0.08 h
same,t1/2 (elimination half-life),"[1]; IV, 0.1 mg/kg",25.8 h
same,elimination half-life,"[1]; SC, 0.1 mg/kg",approximately 1.1 days
same,subcutaneous bioavailability,"[1]; SC, 0.1 mg/kg",approximately 30%
same,AUC0-last,"[1]; SC, 0.1 mg/kg",15423 ng·h/mL
same,CL/F (total body clearance as a function of bioavailability),"[1]; SC, 0.1 mg/kg",6.5 mL/h/kg
same,Cmax (maximum observed plasma concentration),"[1]; SC, 0.1 mg/kg",191 ng/mL
same,Tmax (time of maximum observed plasma concentration),"[1]; SC, 0.1 mg/kg",24.0 h
same,t1/2 (elimination half-life),"[1]; SC, 0.1 mg/kg",28.3 h
same,AUC0-last,[2],7464.78 ng·h/mL
same,CL/F (total body clearance as a function of bioavailability),[2],1.06 mL/h/kg
same,Cmax (maximum observed serum concentration),[2],69.49 ng/mL
same,Tmax (time of maximum observed serum concentration),[2],48 h
same,t1/2 (elimination half-life estimate),[2],75.69 h
same,"Insulin AUC, AUClast",Insulin; Day 1 after SC 0.01 mg/kg,30862 pM·min
same,"Insulin AUC, AUClast",Insulin; Day 5 after SC 0.01 mg/kg,27203 pM·min
same,"Insulin AUC, AUClast",Insulin; Day 7 after SC 0.01 mg/kg,28542 pM·min
same,duration of insulinotropic activity,"Insulin; single SC injection of 0.01 mg/kg, relative to placebo, p<0.0001",at least 7 days
"PEGylated GLP-1 compound of Formula I, wherein Xaa8 is Val; Xaa22 is Glu; Xaa33 is Ile; and Xaa46 is Cys: Formula I (SEQ ID NO: 1) peptide, one PEG molecule covalently attached to Cys45 and one to Cys46 (HVEGTFTSDVSSYLEEQAAKEFIAWLIKGGPSSGAPPPC(PEG)C(PEG); reading uncertain)",EC50,human GLP-1 receptor,0.22 ± 0.03 nM
